Columns and labels:
[1] = tested on: liver, lung, kidney, spleen, and muscle cells; settings: cited from earlier work
BBB = assay: in situ brain perfusion in mice; type: in vivo; settings: 125 nM radiolabeled conjugate; uptake into the brain; FIG. 20
Method: Transport of the conjugates was measured in vivo using in situ brain perfusion in mice. […] The amount present in the brain parenchyma was determined following brain capillary depletion (FIG. 6).
In situ perfusions using 125 nM of the cleavable and non-cleavable conjugates were performed, and uptake into the brain was measured. Inulin was used as a control. […] Kin values were measured for each protein: The cleavable conjugated has a Kin value of 1.1×10^−4 ml/s/g, the non-cleavable has a Kin value of 4.7×10^−5 ml/s/g, and inulin has a Kin value of 2.1×10^−5 ml/s/g.
Partition into brain compartments of the siRNA following capillary depletion was also measured. This perfusion was also performed at 125 nM.
In situ perfusions were also performed using fluorescent siRNA.

Substance	transport into cells of tissues [1]	Kin (BBB)
T F F Y G G S R G R R N N F R T E E Y (TFFYGGSRGRRNNFRTEEY) [AngioPep-7]	efficiently transported into liver, lung, kidney, spleen, and muscle cells	–
inulin	–	2.1e-05 mL/s/g

Source: patent US20110039785A1, “POLYPEPTIDE-NUCLEIC ACID CONJUGATES AND USES THEREOF” (Angiochem Inc., priority 2007, published 2011)
